Test results: patent US20040092720A1 (US Dept. of Health and Human Services, published 2004)

B1: Peptide E25 (peptide)
peptide: KLTWTNPSIKSVIILKYNIQYRTK
B2: Peptide E45 (peptide)
peptide: VEWTTPRESVKKYILEWCVLSDKA
B3: Peptide E35 (peptide)
peptide: TQGYRTVQLVWKTLPPFEANGKIL
B4: Peptide E61 (peptide)
peptide: KDGPEFTFTTPKFAQGEIEAIVVP
B5: Peptide E66 (peptide)
peptide: IWPNVPDPSKSHIAQWSPHTPPRH
B6: Peptide E42 (peptide)
peptide: AAVLTIPACDFQATHPVMDLKAFP
B7: Peptide E18 (peptide)
peptide: DCKAKRDTPTSCTVDYSTVYFVNI
B8: Peptide E57 (peptide)
peptide: IIGNETAVNVDSSHTEYTLSSLTS
B9: Peptide E41 (peptide)
peptide: TVRNLVGKSDAAVLTIPACDFQAT
B10: Peptide E49 (peptide)
peptide: YLRGNLAESKCYLITVTPVYADGP
B11: Peptide E44 (peptide)
peptide: KAFPKDNMLWVEWTTPRESVKKYI
B12: Peptide E9 (peptide)
peptide: IINRTASSVTFTDIASLNIQLTCN
B13: Peptide E31 (peptide)
peptide: CMKEDGKGYWSDWSEEASGITYED
B14: Peptide E27 (peptide)
peptide: YRTKDASTWSQIPPEDTASTRSSF
B15: Peptide E75 (peptide)
peptide: ISSSDENESSQNTSSTVQYSTVVH
B16: Peptide E32 (peptide)
peptide: SDWSEEASGITYEDRPSKAPSFWY
B17: Peptide E16 (peptide)
peptide: ETHLETNFTLKSEWATHKFADCKA
B18: Peptide E20 (peptide)
peptide: FVNIEVWVEAENALGKVTSDHINF
B19: Peptide E73 (peptide)
peptide: TEGHSSGIGGSSCMSSSRPSISSS
B20: Peptide E52 (peptide)
peptide: KAYLKQAPPSKGPTVRTKKVGKNE
B21: Peptide E62 (peptide)
peptide: PKFAQGEIEAIVVPVCLAFLLTTL
B22: Peptide E30 (peptide)
peptide: PFTEYVFRIRCMKEDGKGYWSDWS
B23: Peptide E33 (peptide)
peptide: TYEDRPSKAPSFWYKIDPSHTQGY
B24: Peptide E65 (peptide)
peptide: FNKRDLIKKHIWPNVPDPSKSHIA
B25: Peptide E70 (peptide)
peptide: VSVVEIEANDKKPFPEDLKSLDLF
B26: Peptide E8 (peptide)
peptide: HFTIPKEQYTIINRTASSVTFTDI
B27: Peptide E37 (peptide)
peptide: GKILDYEVTLTRWKSHLQNYTVNA
B28: Peptide E14 (peptide)
peptide: NLSCIVNEGKKMRCEWDGGRETHL
B29: Peptide E12 (peptide)
peptide: LEQNVYGITIISGLPPEKPKNLSC
B30: Peptide E56 (peptide)
peptide: IRNYTIFYRTIIGNETAVNVDSSH
B31: Peptide E39 (peptide)
peptide: TVNATKLTVNLTNDRYLATLTVRN
B32: Peptide E54 (peptide)
peptide: GKNEAVLEWDQLPVDVQNGFIRNY
B33: Peptide E10 (peptide)
peptide: FTDIASLNIQLTCNILTFGQLEQN
B34: Peptide E58 (peptide)
peptide: DSSHTEYTLSSLTSDTLYMVRMAA
B35: Peptide E51 (peptide)
peptide: ADGPGSPESIKAYLKQAPPSKGPT
B36: Peptide E28 (peptide)
peptide: QIPPEDTASTRSSFTVQDLKPFTE
B37: Peptide E68 (peptide)
peptide: PPRHNFNSKDQMYSDGNFTDVSVV
B38: Peptide E50 (peptide)
peptide: CYLITVTPVYADGPGSPESIKAYL
B39: Peptide E38 (peptide)
peptide: TRWKSHLQNYTVNATKLTVNLTND
B40: Peptide E53 (peptide)
peptide: KGPTVRTKKVGKNEAVLEWDQLPV
B41: Peptide E71 (peptide)
peptide: KKPFPEDLKSLDLFKKEKINTEGH
B42: Peptide E40 (peptide)
peptide: LTNDRYLATLTVRNLVGKSDAAVL
B43: Peptide E48 (peptide)
peptide: QQEDGTVHRTYLRGNLAESKCYLI
B44: Peptide E15 (peptide)
peptide: KMRCEWDGGRETHLETNFTLKSEW
B45: Peptide E24 (peptide)
peptide: INSEELSSILKLTWTNPSIKSVII
B46: Peptide E17 (peptide)
peptide: KSEWATHKFADCKAKRDTPTSCTV
B47: Peptide E43 (peptide)
peptide: FQATHPVMDLKAFPKDNMLWVEWT
B48: Peptide E36 (peptide)
peptide: WKTLPPFEANGKILDYEVTLTRWK
B49: Peptide E34 (peptide)
peptide: SFWYKIDPSHTQGYRTVQLVWKTL
B50: Peptide E21 (peptide)
peptide: ENALGKVTSDHINFDPVYKVKPNP
B51: Peptide E19 (peptide)
peptide: SCTVDYSTVYFVNIEVWVEAENAL
B52: Peptide E13 (peptide)
peptide: ISGLPPEKPKNLSCIVNEGKKMRC
B53: Peptide E55 (peptide)
peptide: QLPVDVQNGFIRNYTIFYRTIIGN
B54: Peptide E64 (peptide)
peptide: LTTLLGVLFCFNKRDLIKKHIWPN
B55: Peptide E67 (peptide)
peptide: SHIAQWSPHTPPRHNFNSKDQMYS
B56: Peptide E29 (peptide)
peptide: RSSFTVQDLKPFTEYVFRIRCMKE
B57: Peptide E63 (peptide)
peptide: IVVPVCLAFLLTTLLGVLFCFNKR
B58: Peptide E46 (peptide)
peptide: KKYILEWCVLSDKAPCITDWQQED
B59: Peptide E26 (peptide)
peptide: SVIILKYNIQYRTKDASTWSQIPP
B60: Peptide E69 (peptide)
peptide: QMYSDGNFTDVSVVEIEANDKKPF
B61: Peptide E22 (peptide)
peptide: HINFDPVYKVKPNPPHNLSVINSE
B62: Peptide E60 (peptide)
peptide: RMAAYTDEGGKDGPEFTFTTPKFA
B63: Peptide E72 (peptide)
peptide: LDLFKKEKINTEGHSSGIGGSSCM
B64: Peptide E74 (peptide)
peptide: SSCMSSSRPSISSSDENESSQNTS
B65: Peptide E23 (peptide)
peptide: KPNPPHNLSVINSEELSSILKLTW

Biological target: T1, recombinant human IL-6 (human, UniProt P05231 30-212, labeled with radioactive iodine)
T1 construct: Labeled probe in solution, added to wells that carry the synthetic peptides; also called IL-6 ligand; Interleukin-6
Experiment: radioiodinated IL-6 on peptide array

Binder	Counts/minute bound [counts/minute]
B1	10300
B2	1390
B3	1170
B4	1390
B5	1200
B6	1120
B7	1550
B8	1230
B9	1100
B10	1540
B11	1180
B12	1630
B13	1730
B14	1160
B15	1120
B16	1160
B17	1040
B18	1410
B19	1060
B20	1820
B21	2790
B22	1260

Binder	Counts/minute bound [counts/minute]
B23	1220
B24	5740
B25	1300
B26	1140
B27	1790
B28	1170
B29	1670
B30	1640
B31	4360
B32	1310
B33	3380
B34	1350
B35	1190
B36	1200
B37	1230
B38	1260
B39	3650
B40	1640
B41	2690
B42	4800
B43	1080
B44	1570

Binder	Counts/minute bound [counts/minute]
B45	1010
B46	1410
B47	1300
B48	1460
B49	1140
B50	1120
B51	3320
B52	1200
B53	4360
B54	4500
B55	1200
B56	1320
B57	4520
B58	1710
B59	2830
B60	1190
B61	1730
B62	1450
B63	1440
B64	1130
B65	1410
